In assay [1] the target is T1, recombinant purified Atg11 (Atg11-His6) (yeast, UniProt Q12527 1-1178, Atto565 label in the GUV experiments).
T1 construct: N-terminal residual glycine-proline from PreScission protease digestion; Atg11, yeast; expressed from pCoofy37-Atg11; measured molecular weight 136 kDa; also called His-tagged Atg11; Atg11^Atto565; source: E. coli BL21 (DE3), coexpressed with chaperones from pG-KJE8, purified (Ni-NTA, PreScission digestion, gel filtration); not shown: His6, C-terminal, kept
T1 sequence: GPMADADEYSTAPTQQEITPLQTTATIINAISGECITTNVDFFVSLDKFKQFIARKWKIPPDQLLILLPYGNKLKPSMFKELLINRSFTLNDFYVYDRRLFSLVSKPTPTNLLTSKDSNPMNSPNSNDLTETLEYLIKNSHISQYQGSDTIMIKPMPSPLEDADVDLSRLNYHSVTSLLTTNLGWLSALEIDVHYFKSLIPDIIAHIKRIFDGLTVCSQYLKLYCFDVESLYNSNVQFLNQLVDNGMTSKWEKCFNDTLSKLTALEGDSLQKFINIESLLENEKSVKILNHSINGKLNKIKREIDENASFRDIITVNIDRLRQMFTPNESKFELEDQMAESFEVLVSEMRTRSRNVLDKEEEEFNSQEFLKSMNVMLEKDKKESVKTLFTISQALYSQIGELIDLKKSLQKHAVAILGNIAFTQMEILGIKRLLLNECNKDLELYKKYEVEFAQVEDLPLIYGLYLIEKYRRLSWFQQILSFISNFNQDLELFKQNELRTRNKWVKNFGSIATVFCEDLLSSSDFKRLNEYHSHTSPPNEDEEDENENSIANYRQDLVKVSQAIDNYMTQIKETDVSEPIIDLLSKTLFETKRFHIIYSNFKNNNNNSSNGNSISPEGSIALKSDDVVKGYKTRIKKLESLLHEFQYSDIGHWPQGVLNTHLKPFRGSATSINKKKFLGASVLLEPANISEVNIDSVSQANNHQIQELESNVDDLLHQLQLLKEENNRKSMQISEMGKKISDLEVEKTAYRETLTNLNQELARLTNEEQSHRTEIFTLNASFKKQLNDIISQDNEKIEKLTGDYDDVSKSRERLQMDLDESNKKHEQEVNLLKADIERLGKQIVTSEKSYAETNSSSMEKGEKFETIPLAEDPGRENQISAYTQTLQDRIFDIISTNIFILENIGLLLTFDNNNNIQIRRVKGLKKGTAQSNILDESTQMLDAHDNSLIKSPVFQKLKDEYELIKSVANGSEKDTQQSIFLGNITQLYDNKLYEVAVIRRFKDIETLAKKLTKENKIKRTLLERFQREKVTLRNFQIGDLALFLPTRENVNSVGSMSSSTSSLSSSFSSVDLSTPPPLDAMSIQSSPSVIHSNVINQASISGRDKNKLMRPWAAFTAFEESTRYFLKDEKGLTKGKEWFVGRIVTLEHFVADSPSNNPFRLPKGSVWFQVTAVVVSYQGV
As to the kind of experiment: pull-down; 10 μg recombinant GST-tagged bait coupled to Glutathione-resin, with recombinant Atg11; SDS-PAGE. The note with it: both partners purified.

For a further assay, the target named is T2, HA-tagged Atg9 (S. cerevisiae, UniProt Q12142 1-997).
T2 construct: Atg9, transmembrane autophagy protein, yeast; also called HA-Atg9; source: yeast cells expressing HA-tagged Atg9, in lysate
T2 sequence (looked up): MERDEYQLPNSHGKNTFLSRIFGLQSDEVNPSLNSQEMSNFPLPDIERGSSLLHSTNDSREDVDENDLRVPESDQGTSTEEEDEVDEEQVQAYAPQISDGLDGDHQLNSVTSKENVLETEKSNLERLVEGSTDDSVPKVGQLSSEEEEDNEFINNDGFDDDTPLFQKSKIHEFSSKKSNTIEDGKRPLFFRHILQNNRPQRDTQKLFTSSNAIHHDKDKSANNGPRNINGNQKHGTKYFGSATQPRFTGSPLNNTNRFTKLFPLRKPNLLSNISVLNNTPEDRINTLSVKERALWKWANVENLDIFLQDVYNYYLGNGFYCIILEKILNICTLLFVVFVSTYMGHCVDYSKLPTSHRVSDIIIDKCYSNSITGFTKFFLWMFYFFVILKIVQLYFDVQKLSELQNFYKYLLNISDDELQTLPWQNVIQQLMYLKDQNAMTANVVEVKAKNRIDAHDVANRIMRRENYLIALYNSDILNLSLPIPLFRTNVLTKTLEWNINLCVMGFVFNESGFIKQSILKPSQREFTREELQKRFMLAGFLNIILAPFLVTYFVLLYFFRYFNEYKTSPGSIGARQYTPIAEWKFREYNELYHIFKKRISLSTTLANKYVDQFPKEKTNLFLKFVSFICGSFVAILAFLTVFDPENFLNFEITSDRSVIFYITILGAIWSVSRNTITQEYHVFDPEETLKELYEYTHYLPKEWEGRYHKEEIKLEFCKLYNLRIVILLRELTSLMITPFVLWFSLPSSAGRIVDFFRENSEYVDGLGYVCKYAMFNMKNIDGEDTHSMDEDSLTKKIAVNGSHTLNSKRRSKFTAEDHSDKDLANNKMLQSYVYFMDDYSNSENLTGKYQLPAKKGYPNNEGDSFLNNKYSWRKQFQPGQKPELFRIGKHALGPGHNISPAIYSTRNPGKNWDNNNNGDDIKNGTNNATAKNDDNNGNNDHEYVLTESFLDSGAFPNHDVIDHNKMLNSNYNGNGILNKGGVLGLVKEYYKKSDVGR
As to the kind of experiment: co-IP; competition: purified Atg17 (0, 1, 4 μM) added to lysates of nonstarved cells; IP of Atg11-myc, HA-Atg9 detected by blot. The conditions noted are these: one partner purified.

The target in assay [2] is T3, Atg9^core reconstituted in proteoliposomes (yeast, UniProt Q12142 281-779).
T3 construct: Atg9 core, yeast; Liposomes: 20 mol% cholesterol, 10 mol% POPE, 60 mol% POPC, 10 mol% POPS; protein:lipid 1:200; also called Atg9-PLs; Atg9 vesicles; source: reconstituted in liposomes by rapid dilution
T3 sequence (looked up): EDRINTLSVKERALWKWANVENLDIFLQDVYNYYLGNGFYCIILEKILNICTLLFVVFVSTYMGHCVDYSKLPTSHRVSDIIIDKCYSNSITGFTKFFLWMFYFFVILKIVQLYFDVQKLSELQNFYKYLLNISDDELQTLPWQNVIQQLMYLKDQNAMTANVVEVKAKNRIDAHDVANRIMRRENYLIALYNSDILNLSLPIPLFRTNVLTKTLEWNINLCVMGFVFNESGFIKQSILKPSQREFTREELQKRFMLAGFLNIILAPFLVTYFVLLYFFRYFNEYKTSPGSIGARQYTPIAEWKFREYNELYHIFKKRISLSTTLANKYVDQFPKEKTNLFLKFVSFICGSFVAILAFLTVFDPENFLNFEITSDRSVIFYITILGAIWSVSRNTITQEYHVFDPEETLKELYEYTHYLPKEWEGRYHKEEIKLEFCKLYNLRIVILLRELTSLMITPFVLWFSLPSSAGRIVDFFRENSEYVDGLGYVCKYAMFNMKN
As to the kind of experiment: co-floatation with proteoliposomes; competition: Atg11 and Atg17 coincubated with Atg9-PLs at different stoichiometric ratios (Atg11 kept constant); floated fraction on SDS-PAGE, amounts from band intensities. The note with it: both partners purified.

Assay [3] concerns the target T3, Atg9^core reconstituted in …. As to the kind of experiment: cell-based or functional assay.

Changes are numbered by the printed parent chain. Names and notes keep the numbering of the source.

B1: GST-tagged wild-type Atg29 (natural protein, yeast, UniProt Q12092 1-213, looked up)
chain: MIMNSTNTVVYIKVKGRRPQGFLDPPKFEWNGTKERQLWTMVSNLNYSQDQIDWQNLSKIFETPEFFLKKRTYKLFAEHLELLQLQLEKKRDLEKYSNDQVNEGMSDLIHKYTPTLQNDNLLNVSASPLTTERQDSEEVETEVTNEALQHLQTSKILNIHKKTSDSENKPNDKLDKDGINKEMECGSSDDDLSSSLSVSKSALEEALMDRLQF
notes: Atg29, yeast; also called GST-Atg29^WT; Atg29^WT
For the molecule B1, the binding result in assay [1] is given as “binds”.

B2: GST-Atg31-Atg29^WT subcomplex (complex, yeast)
chain 1: MNVTVTVYDKNVKYRLEENIKNNKGPSNDDQPAYNNESKSTDGSDYAMFPTNIKYIFEDNNDELVDSSDAALTAGIDKVGDELENVIIVQLDESGSLEDITLISDQYELLSHRTNSLSLEENQMRTLSSHGDDKSNDEEEELSVDSDRFRVDSDIELDVISQFCDLSPFLRDLSLNDLIKLYVTQNEQLQMLSNSV
chain 2: B1 chain
notes: Atg31, yeast; Atg29, yeast; also called GST-tagged Atg31 (31) and Atg29^WT (29); source: recombinant, coexpressed and purified as subcomplex
Consider B2, for which the binding result in assay [1] is on record as “binds”.

B3: GST-Atg31-Atg29^SD subcomplex (complex, yeast)
chain 1: B2 chain 1
chain 2: B1 chain with S197D, S199D, S201D
notes: Atg31, yeast; Atg29, yeast, phosphomimetic variant; also called GST-tagged Atg31 (31) and Atg29^SD (29^SD); source: recombinant, coexpressed and purified as subcomplex
On to B3, for which the binding result in assay [1] was “binds”.

B4: GST-tagged phosphomimetic Atg29 (Atg29^SD) (natural protein, yeast, UniProt Q12092 1-213, looked up)
chain: B1 chain with S197D, S199D, S201D
notes: Atg29, yeast, phosphomimetic variant; also called GST-Atg29^SD; Atg29^(S197D, S199D, S201D); source: recombinant, purified
Consider B4, for which the binding result in assay [1] is “binds”.

B5: recombinant purified Atg17 (natural protein, yeast, UniProt Q06410 1-417, looked up)
chain: MNEADVTKFVNNARKTLTDAQLLCSSANLRIVDIKKKLSSWQLSISKLNFLIVGLRQQGKFLYTILKEGIGTKLIQKQWNQAVLVVLVDEMKYWQYEITSKVQRLDGIVNELSISEKDDTDPSKLGDYISRDNVNLLNDKLKEVPVIERQIENIKLQYENMVRKVNKELIDTKLTDVTQKFQSKFGIDNLMETNVAEQFSRELTDLEKDLAEIMNSLTQHFDKTLLLQDKKIDNDEREELFKVVQGDDKELYNIFKTLHEVIDDVDKTILNLGQFLQAKIKEKTELHSEVSEIINDFNRNLEYLLIFKDISNLIDSFKNSCTQDIQTTKELCEFYDNFEESYGNLVLEAKRRKDVANRMKTILKDCEKQLQNLDAQDQEERQNFIAENGTYLPETIWPGKIDDFSSLYTLNYNVKNP
notes: Atg17, scaffolding protein of nonselective autophagy, yeast
On to B5, for which, in the assay with HA-tagged Atg9, the “molar excess of Atg17 over Atg11 for equal binding to Atg9” value was determined as 25 fold. Moreover, the “molar excess of Atg17 over Atg11 for similar recovery of both” value in assay [2] is 25 fold. In addition, the “hydrodynamic radius of Atg9 vesicles against control SUVs in the presence of Atg17 (dynamic light scattering; vesicle tethering)” value in assay [3] stood at 2 fold.
